Data set [1] relates to MS2 coat protein. Description: apparent KD of MS2 coat protein, switch ON state; designed switch direction (-1 OFF switch, 1 ON switch): -1; higher = weaker reporter binding. As to conditions: FMN input: 0 or 200 uM; Eterna round: R93 (includes R88 designs). Put shortly:
(§1)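 Titration buffer: 100 mM Tris-HCl pH 7.5, 80 mM KCl, 4 mM MgCl2, without or with constant ligand. Designed RNA switches transcribed on-chip from Illumina sequencing clusters received SNAP-549-labelled MS2 coat protein in twofold steps from 0.7 or 1.5 nM to 3 µM. Apparent KD is the median per design of fits to normalised cluster binding curves.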

Data set [2] relates to MS2 coat protein. Description: apparent KD of MS2 coat protein, switch OFF state (with FMN for OFF switches, without FMN for ON switches); designed switch direction (-1 OFF switch, 1 ON switch): -1; higher = weaker reporter binding. As to conditions: FMN input: 0 or 200 uM; Eterna round: R93 (includes R88 designs). A digest of the protocol:
as §1

The record followed here is the supplement of paper PMC9170038.

As to “AAAGGAGCAGGAUAUACAUGAGGAUCACCCAUGUAAAAAACAUAAUAAAAGAACUUAUGUAGAAGGGCUCCAAA [69%, Moding Meechl, 10]”, the entries for the “apparent KD of MS2 coat protein” value with MS2 coat protein [1] and in the data set on MS2 coat protein [2] were 48.2 nM and 228 nM, respectively.
For “AAAUGACAUGAGGAUCACCCAUGUCAGGAUAUGACUUGAAAAUAAAAUAAAAAACAUGUCAGAAGGGACAUGAA [Design 49: Sub-opt EB]”, the “apparent KD of MS2 coat protein” value in the data set on MS2 coat protein [1] is 13.5 nM; in the data set with MS2 coat protein [2], 12.4 nM.
On to “AACAAACAUGAGGAUCACCCAUGUGAGGAUAUACAAACAAACAAAAACAAAACAAAAAGUAGAAGGCACAACAA [JR_Exc001_Sub002]”, for which the “apparent KD of MS2 coat protein” value in the data set with MS2 coat protein [1] was determined as 19.4 nM; in the data set on MS2 coat protein [2], 18.9 nM.
Regarding “AACAAACAUGAGGAUCACCCAUGUGAGGAUAUGAAAAUAAAUAAAAAUAAAAUAAAAAUCAGAAGGCACAACAA [JR_Exc001_Sub003]”, the “apparent KD of MS2 coat protein” value in the data set with MS2 coat protein [1] came to 25.6 nM; in the data set on MS2 coat protein [2] it was 28.2 nM.
Take “AACAAGACAGGAUAUACAUGAGGAUCACCCAUGUCACAACAAAGCAGCGCAACACAAAGUAGAAGGGUCAUGAA [Ruby 12]”: the “apparent KD of MS2 coat protein” value was 45.1 nM in the data set with MS2 coat protein [1] and 46.9 nM in the data set with MS2 coat protein [2].
Regarding “AACAGUACAGGAUAUACAUGAGGAUCACCCAUGUGAAAAUUAAGUGGCGAACCACAGUGUAGAAGGGUACUGGA [Mat - Exclusion 3 - Eli mod - D51]”, the “apparent KD of MS2 coat protein” value is 81.8 nM in the data set on MS2 coat protein [1] and 33.5 nM in the data set with MS2 coat protein [2].
For “AACAGUACAGGAUAUACAUGAGGAUCACCCAUGUGAAAAUUAAGUGGGAAACCACAGUGUAGAAGGGUACUGAA [Mat - Exclusion 3 - Eli mod - D55]”, the “apparent KD of MS2 coat protein” value in the data set with MS2 coat protein [1] came out at 120 nM; in the data set with MS2 coat protein [2], 93 nM.
Take “AACAGUACAGGAUAUACAUGAGGAUCACCCAUGUGAAGAUUAAGUGGAGUACCACAAAGUAGAAGGGUACUGGA [Ruby 89]”: the “apparent KD of MS2 coat protein” value in the data set with MS2 coat protein [1] was found to be 28.1 nM; with MS2 coat protein [2] it was 101 nM.
For “AACAGUACAGGAUAUACAUGAGGAUCACCCAUGUGAGAAUUAAGUGGAGUACCACAAAGUAGAAGGGUACUGGA [Mat - Exclusion 3 - JL mod - D4]”, the “apparent KD of MS2 coat protein” value worked out at 28.9 nM in the data set with MS2 coat protein [1] and 202 nM in the data set on MS2 coat protein [2].
As to “AACAGUACAGGAUAUACAUGAGGAUCACCCAUGUGAGACUUAAAAGGCGUACCUAAAAGUAGAAGGGUACUGGA [JL Maslow Revisted mod 21]”, the “apparent KD of MS2 coat protein” value in the data set on MS2 coat protein [1] amounted to 56.1 nM; with MS2 coat protein [2] it was 176 nM.
For “AACAGUACAGGAUAUACAUGAGGAUCACCCAUGUGAGUUUUAAAAGGCGUACCUAAAAGUAGAAGGGUACUGGA [JL Maslow Revisted mod 20]”, the “apparent KD of MS2 coat protein” value in the data set on MS2 coat protein [1] was 24.3 nM; in the data set on MS2 coat protein [2], 44.2 nM.
Regarding “AACAGUACAGGAUAUACAUGAGGAUCACCCAUGUGGGAGAAAAGAUCGAGAGAUCAAUGUAGAAGGGUACUGGA [JL In the Red 07]”, the “apparent KD of MS2 coat protein” value stood at 115 nM with MS2 coat protein [1] and 80.1 nM in the data set with MS2 coat protein [2].
Consider “AACAUGUCAGGAUAUGUAGUAAAAAGUGAUCCUCAUAAACUACAGAAGGGACAUGAGGAUCACCCAUGUAAAAA [Ex4: 930]”, for which the “apparent KD of MS2 coat protein” value is 27.9 nM in the data set with MS2 coat protein [1] and 21.3 nM in the data set with MS2 coat protein [2].
Taken in the same sequence, the figures for “AACAUGUCAGGAUAUUAAAGAAAAGAAAAGAAAGAAAAGAAUAAGAAGGGACAUGAGGAUCACCCAUGUAAGAA [EteRNA is fun!]” were 72.1 nM and 37 nM.
In the case of “AACGUACAUGAGGAUCACCCAUGUUAGGAUAUAUAUACAGGAAAACAUUCUAAUGUAAAUAGAAGGAACGAAAA [Bilbo Confounded 21 - Jieux - Exclusion 1]”, the entries for the “apparent KD of MS2 coat protein” value with MS2 coat protein [1] and in the data set on MS2 coat protein [2] were 17.1 nM and 10.8 nM, respectively.
Take “AACUAGUCAGGAUAUACGAACAUGUCAAAAAACAUAAAGGGACAUGAGGAUCACCCAUGUAGAAGGGACUAGCA [74%, Web mod - With 4 less G's]”: the “apparent KD of MS2 coat protein” value in the data set on MS2 coat protein [1] turned out to be 161 nM; with MS2 coat protein [2], 262 nM.
Take “AACUAGUCAGGAUAUGCGAACAGAUAAUAAGCUACACAAAAGCAGAAGGGACAUGAGGAUCACCCAUGUAAAUA [JR_Exc004_Sub502]”: the “apparent KD of MS2 coat protein” value in the data set on MS2 coat protein [1] stood at 39.3 nM; in the data set with MS2 coat protein [2], 33 nM.
Taken in the same sequence, the figures for “AACUGACAUGAGGAUCACCCAUGUCAGGAUAUGACUUCGAAAAAAAAAAAAAACGAUGUCAGAAGGGACAUGGA [Design 66: Sub-opt N]” were 17.5 nM and 27.2 nM.
For the sequence “AACUGACAUGAGGAUCACCCAUGUCAGGAUAUGAUUUGACGAAAAAAAAAAAGUCAUAUCAGAAGGGACAUGGG [Design 82: Sub-opt V]”, the “apparent KD of MS2 coat protein” value in the data set with MS2 coat protein [1] worked out at 19 nM; with MS2 coat protein [2], 17.6 nM.
For the sequence “AAGAAACAUGAGGAUCACCCAUGUAAGGAUAUCUAAAAGAAAAGAAAAGAAAGAAGAAAGAGAAGGUACAAAGG [Nebhetepre Mentuhotep II]”, the “apparent KD of MS2 coat protein” value with MS2 coat protein [1] was found to be 87.3 nM; in the data set with MS2 coat protein [2], 81.3 nM.
